Results on 4 molecules are retold here after patent US20230295335A1 (published 2023).

Residue numbers refer to the chain shown, from its start.

Experiment [1] deals with T1, recombinant human EpCAM (R&D systems, cat no 9277-EP) (human, UniProt P16422 24-265).
T1 construct: also called human EpCAM extracellular domain
T1 sequence: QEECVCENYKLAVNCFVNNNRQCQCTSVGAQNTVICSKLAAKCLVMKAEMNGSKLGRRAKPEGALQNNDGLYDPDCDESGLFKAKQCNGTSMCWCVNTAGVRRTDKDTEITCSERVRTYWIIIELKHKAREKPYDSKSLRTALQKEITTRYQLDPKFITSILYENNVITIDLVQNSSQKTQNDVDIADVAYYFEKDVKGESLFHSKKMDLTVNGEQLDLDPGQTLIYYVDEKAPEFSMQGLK
Description: BLI (Octet HTX); His-tagged human EpCAM on anti-Penta-HIS sensors, antibody 1.56-100 nM as analyte. (In BLI a coated tip is dipped into the sample, and binding shifts an interference pattern.)

In experiment [2] the target is T1, recombinant human EpCAM (R&D systems, …). Description: BLI (Octet HTX); His-tagged human EpCAM on anti-Penta-HIS sensors, antibody as analyte; 1:1 global full fit.
Experiment [3] addresses T2, full length human EpCAM on cells (human, UniProt P16422 24-314).
T2 construct: the cell line is named under assay; also called EpCAM on DiFi, HPAF-II and A549 tumor cells; CHO-S cells transfected with full length human EpCAM
T2 sequence: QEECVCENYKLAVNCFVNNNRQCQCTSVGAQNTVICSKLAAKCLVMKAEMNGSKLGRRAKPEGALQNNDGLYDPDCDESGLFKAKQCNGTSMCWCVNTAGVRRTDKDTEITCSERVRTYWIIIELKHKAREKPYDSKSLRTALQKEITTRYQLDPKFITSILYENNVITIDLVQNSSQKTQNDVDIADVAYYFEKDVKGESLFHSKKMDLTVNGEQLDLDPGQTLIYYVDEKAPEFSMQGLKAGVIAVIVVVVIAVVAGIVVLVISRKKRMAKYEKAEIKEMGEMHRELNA
Description: flow cytometry on CHO-S cells transfected with human EpCAM. (In flow cytometry, cells or beads pass a laser one at a time.)

The target in experiment [4] is T3, full length cynomolgus monkey EpCAM on CHO-S cells (cynomolgus monkey, UniProt Q1WER1 24-314 (rhesus entry)).
T3 sequence: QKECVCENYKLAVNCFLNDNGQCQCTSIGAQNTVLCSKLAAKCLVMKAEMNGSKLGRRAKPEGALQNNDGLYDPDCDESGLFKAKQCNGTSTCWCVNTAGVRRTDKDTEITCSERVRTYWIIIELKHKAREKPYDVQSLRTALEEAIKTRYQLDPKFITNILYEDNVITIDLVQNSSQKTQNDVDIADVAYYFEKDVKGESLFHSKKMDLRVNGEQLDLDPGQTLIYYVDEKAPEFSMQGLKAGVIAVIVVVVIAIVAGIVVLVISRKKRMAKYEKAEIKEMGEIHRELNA
Put plainly: flow cytometry on CHO-S cells transfected with cynomolgus monkey EpCAM.

For experiment [5], the target named is T4, full length mouse EpCAM on CHO-S cells (mouse, UniProt Q99JW5 24-315).
T4 sequence: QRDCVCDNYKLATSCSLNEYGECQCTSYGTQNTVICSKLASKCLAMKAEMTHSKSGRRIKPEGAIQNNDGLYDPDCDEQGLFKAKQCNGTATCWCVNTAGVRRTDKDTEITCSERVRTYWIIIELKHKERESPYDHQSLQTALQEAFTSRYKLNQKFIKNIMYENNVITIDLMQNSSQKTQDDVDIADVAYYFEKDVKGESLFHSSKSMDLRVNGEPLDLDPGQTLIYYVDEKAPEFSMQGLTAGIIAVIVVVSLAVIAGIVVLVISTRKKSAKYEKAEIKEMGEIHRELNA
Description: flow cytometry on CHO-S cells transfected with mouse EpCAM.

In experiment [6] the target is T2, full length human EpCAM on cells. Description: flow cytometry on DiFi tumor cells.
Experiment [7] shares this target. Description: flow cytometry on DiFi, HPAF-II and A549 tumor cells.

B1: BisG2amm-EpCAM-323-A3-AALT/m4-1BB-3H3-AAKR (bispecific antibody, mouse IgG2a, kappa)
heavy 1: QIQLVQSGPELKKPGETVKISCKASGYTFTNYGMNWVRQASGEGLKWMGWINTYTGEPTYGEDFKGRFAFSLETSASTAYLQINNLKNEDTATYFCARFGNYVDYWGQGTTLTVSSAKTTAPSVYPLAPVCGDTTGSSVTLGCLVKGYFPEPVTLTWNSGSLSSGVHTFPAVLQSDLYTLSSSVTVTSSTWPSQSITCNVAHPASSTKVDKKIEPRGPTIKPCPPCKCPAPNAAGGPSVFIFPPKIKDVLMISLSPMVTCVVVDVSEDDPDVQISWFVNNVEVLTAQTQTHREDYNSTLRVVSALPIQHQDWMSGKEFKCKVNNKALPAPIERTISKPKGSVRAPQVYVLPPPEEEMTKKQVTLTCMVTDFMPEDIYVEWTNNGKTELNYKNTEPVLDSDGSYLMYSKLTVEKKNWVERNSYSCSVVHEGLHNHHTTKSFSRTPG
light 1: DIVMTQAAFSNPVTLGTSASISCRSSKNLLHSNGITYLYWYLQKPGQSPHLLIYQMSNLASGVPDRFSSSGSGTDFTLRISRVEAEDVGVYYCAQNLEIPRTFGGGTKLEIKRADAAPTVSIFPPSSEQLTSGGASVVCFLNNFYPKDINVKWKIDGSERQNGVLNSWTDQDSKDSTYSMSSTLTLTKDEYERHNSYTCEATHKTSTSPIVKSFNRNEC
heavy 2: EMQLVESGGGLVQPGRSMKLSCAGSGFTLSDYGVAWVRQAPKKGLEWVAYISYAGGTTYYRESVKGRFTISRDNAKSTLYLQMDSLRSEDTATYYCTIDGYGGYSGSHWYFDFWGPGTMVTVSSAKTTAPSVYPLAPVCGDTTGSSVTLGCLVKGYFPEPVTLTWNSGSLSSGVHTFPAVLQSDLYTLSSSVTVTSSTWPSQSITCNVAHPASSTKVDKKIEPRGPTIKPCPPCKCPAPNAAGGPSVFIFPPKIKDVLMISLSPMVTCVVVDVSEDDPDVQISWFVNNVEVLTAQTQTHREDYNSTLRVVSALPIQHQDWMSGKEFKCKVNNKALPAPIERTISKPKGSVRAPQVYVLPPPEEEMTKKQVTLTCMVKDFMPEDIYVEWTNNGKTELNYKNTEPVLDSDGSYFMYSRLRVEKKNWVERNSYSCSVVHEGLHNHHTTKSFSRTPG
light 2: DIQMTQSPSLLSASVGDRVTLNCRTSQNVYKNLAWYQQKLGEAPKLLIYNANSLQAGIPSRFSGSGSGTDFTLTISSLQPEDVATYFCQQYYSGNTFGAGTNLELKRADAAPTVSIFPPSSEQLTSGGASVVCFLNNFYPKDINVKWKIDGSERQNGVLNSWTDQDSKDSTYSMSSTLTLTKDEYERHNSYTCEATHKTSTSPIVKSFNRNEC
notes: Mouse IgG2a bispecific made by controlled Fab-arm exchange; one EpCAM arm, so monovalent for EpCAM; also called BsIgG2amm-EpCAM-323-A3-AALT/m4-1BB-3H3-AAKR; BisIgG2amm-EpCAM-323-A3-AALT/m4-1BB-3H3-AAKR
Regarding B1, in experiment [1], the Response worked out at 1.21 nm. Further, in experiment [2], the Kd (commonly the concentration at which binding is half-saturated) is 3.2 nM; the koff – broadly, the rate constant with which the complex falls apart – came to 0.0011 s⁻¹; the kon – broadly, the rate constant with which the complex forms – amounted to 340000 M⁻¹ s⁻¹.

B2: bsIgG1-b12-FEAL/EpCAM-323-A3-FEAR (bispecific antibody)
heavy 1: QVQLVQSGAEVKKPGASVKVSCQASGYRFSNFVIHWVRQAPGQRFEWMGWINPYNGNKEFSAKFQDRVTFTADTSANTAYMELRSLRSADTAVYYCARVGPYSWDDSPQDNYYMDVWGKGTTVIVSSASTKGPSVFPLAPSSKSTSGGTAALGCLVKDYFPEPVTVSWNSGALTSGVHTFPAVLQSSGLYSLSSVVTVPSSSLGTQTYICNVNHKPSNTKVDKRVEPKSCDKTHTCPPCPAPEFEGGPSVFLFPPKPKDTLMISRTPEVTCVVVAVSHEDPEVKFNWYVDGVEVHNAKTKPREEQYNSTYRVVSVLTVLHQDWLNGKEYKCKVSNKALPAPIEKTISKAKGQPREPQVYTLPPSREEMTKNQVSLTCLVKGFYPSDIAVEWESNGQPENNYKTTPPVLDSDGSFLLYSKLTVDKSRWQQGNVFSCSVMHEALHNHYTQKSLSLSPG
light 1: EIVLTQSPGTLSLSPGERATFSCRSSHSIRSRRVAWYQHKPGQAPRLVIHGVSNRASGISDRFSGSGSGTDFTLTITRVEPEDFALYYCQVYGASSYTFGQGTKLERKRTVAAPSVFIFPPSDEQLKSGTASVVCLLNNFYPREAKVQWKVDNALQSGNSQESVTEQDSKDSTYSLSSTLTLSKADYEKHKVYACEVTHQGLSSPVTKSFNRGEC
heavy 2: QIQLVQSGPELKKPGETVKISCKASGYTFTNYGMNWVRQASGEGLKWMGWINTYTGEPTYGEDFKGRFAFSLETSASTAYLQINNLKNEDTATYFCARFGNYVDYWGQGTTLTVSSASTKGPSVFPLAPSSKSTSGGTAALGCLVKDYFPEPVTVSWNSGALTSGVHTFPAVLQSSGLYSLSSVVTVPSSSLGTQTYICNVNHKPSNTKVDKRVEPKSCDKTHTCPPCPAPEFEGGPSVFLFPPKPKDTLMISRTPEVTCVVVAVSHEDPEVKFNWYVDGVEVHNAKTKPREEQYNSTYRVVSVLTVLHQDWLNGKEYKCKVSNKALPAPIEKTISKAKGQPREPQVYTLPPSREEMTKNQVSLTCLVKGFYPSDIAVEWESNGQPENNYKTTPPVLDSDGSFFLYSRLTVDKSRWQQGNVFSCSVMHEALHNHYTQKSLSLSPG
light 2: DIVMTQAAFSNPVTLGTSASISCRSSKNLLHSNGITYLYWYLQKPGQSPHLLIYQMSNLASGVPDRFSSSGSGTDFTLRISRVEAEDVGVYYCAQNLEIPRTFGGGTKLEIKRTVAAPSVFIFPPSDEQLKSGTASVVCLLNNFYPREAKVQWKVDNALQSGNSQESVTEQDSKDSTYSLSSTLTLSKADYEKHKVYACEVTHQGLSSPVTKSFNRGEC
B2: the binding result in experiment [3], in experiment [4] and in experiment [5] was “binds” in each case.

B3: bsIgG1-b12-FERL/b12-FEAR (bispecific antibody)
heavy 1: B2 heavy 1 with G246R, A275D
heavy 2: B2 heavy 1 with L415F, K419R
light: B2 light 1
notes: also called b12-FERLxb12-FEAR; bsIgG1-ctrl-b12-FERL/b12-FEAR
Consider B3, for which the binding result in experiment [6] is given as “no binding (tested: up to 30 µg/mL)”.

B4: IgG1-b12-FEAL (antibody, V domains shown)
VH: QVQLVQSGAEVKKPGASVKVSCQASGYRFSNFVIHWVRQAPGQRFEWMGWINPYNGNKEFSAKFQDRVTFTADTSANTAYMELRSLRSADTAVYYCARVGPYSWDDSPQDNYYMDVWGKGTTVIVSS
VL: EIVLTQSPGTLSLSPGERATFSCRSSHSIRSRRVAWYQHKPGQAPRLVIHGVSNRASGISDRFSGSGSGTDFTLTITRVEPEDFALYYCQVYGASSYTFGQGTKLERKR
notes: also called negative control antibody
B4: the binding result in experiment [7] is given as “no binding (tested: up to 50 µg/mL)”.
